Measured values reported in PMC3381513.
Read-outs that look alike come from different tables or passages of the source.

How the values were obtained:
CUGBP1 RRM1/2 [1] = molecular target: T1, CUGBP1 RRM1/2 (human, UniProt Q92879 14-187); experiment: filter binding
CUGBP1 RRM1/2 [2] = molecular target: T1, CUGBP1 RRM1/2; experiment: crystal structure
CUGBP1 RRM2 (ITC) = CUGBP1 RRM2 (ITC) (human, UniProt Q92879 109-187); experiment: ITC
CUGBP1 RRM1 (ITC) = CUGBP1 RRM1 (ITC) (human, UniProt Q92879 16-99); experiment: ITC
CUGBP1 RRM1/2 [3] = molecular target: T1, CUGBP1 RRM1/2; experiment: filter binding; remark: listed apart in the source
CUGBP1 RRM1/2 [4] = molecular target: T1, CUGBP1 RRM1/2; experiment: EMSA
CUGBP1 RRM1/2 [5] = molecular target: T1, CUGBP1 RRM1/2; experiment: filter binding; remark: listed apart in the source

T1 sequence (Q92879 14-187): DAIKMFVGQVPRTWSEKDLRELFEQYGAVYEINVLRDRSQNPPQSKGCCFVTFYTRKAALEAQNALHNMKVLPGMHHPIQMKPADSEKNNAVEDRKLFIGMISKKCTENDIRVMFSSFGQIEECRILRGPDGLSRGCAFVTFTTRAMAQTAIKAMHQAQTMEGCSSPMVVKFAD
Chain of CUGBP1 RRM1 (ITC) (Q92879 16-99): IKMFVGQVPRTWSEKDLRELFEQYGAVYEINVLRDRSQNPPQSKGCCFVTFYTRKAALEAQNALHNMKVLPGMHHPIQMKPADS
Chain of CUGBP1 RRM2 (ITC) (Q92879 109-187): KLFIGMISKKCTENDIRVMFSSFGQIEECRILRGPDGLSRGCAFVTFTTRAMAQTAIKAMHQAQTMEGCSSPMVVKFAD

GUUAUUUUUAUU (ssRNA) [A4A10]: no binding (CUGBP1 RRM1/2 [1]).

GUUGUUUUUGUU (ssRNA, U8 = 5-bromouridine) [BrU8 sequence 2]: binds (CUGBP1 RRM1/2 [2]).

GUUCUUUUUCUU (ssRNA) [C4C10]: no binding (CUGBP1 RRM1/2 [1]).

For UUGUU (ssRNA) [UUGUU 5-nt], the Kd (CUGBP1 RRM2 (ITC)) was 45 µM and the Kd (CUGBP1 RRM1 (ITC)) was 29 µM.

With GUUAUUUUUGUU (ssRNA) [A4G10] the binding signal (CUGBP1 RRM1/2 [3]) was 4.4 fold reduction in binding vs N2.

GUUGUUUUUAUU (ssRNA) [G4A10] was tested, and the binding signal (CUGBP1 RRM1/2 [3]) was 2.5 fold reduction in binding vs N2.

UGUGUGUUGUGUG (ssRNA) [sequence 3, 13-mer]: binds (CUGBP1 RRM1/2 [4]).

In the case of GUUGCUUUUGCU (ssRNA) [C5C11], the binding signal (CUGBP1 RRM1/2 [5]) is reported as ~5 fold loss in affinity vs N2.

GUUGUUUUUGUU (ssRNA, U2 = 5-bromouridine) [BrU2 sequence 2]: binds (CUGBP1 RRM1/2 [2]).

GUUUUUUUUUUU (ssRNA) [U4U10]: no binding (CUGBP1 RRM1/2 [1]).
